The values below come from patent US20140017764.

The subject of series [1] is T1, HCV-P preferred substrate construct (DEMEECASHL).
T1 sequence: DEMEECASHL

In series [2] the target is T2, human granzyme K preferred substrate construct (CGYGPKKKRKVGG).
T2 chain: CGYGPKKKRKVGG

For series [3], the target named is human AblTK preferred substrate construct.
Series [4] addresses T3, TENLYFESGTRRW peptide substrate.
T3 chain: TENLYFESGTRRW

The target in series [5] is T4, TENLYFHSGTRRW peptide substrate.
T4 chain: TENLYFHSGTRRW

In series [6] the target is T5, Aga2 substrate fusion polypeptide with HCV-P counter selection sequence and TEV-P selection substrate ENLYFQS.
T5 chain: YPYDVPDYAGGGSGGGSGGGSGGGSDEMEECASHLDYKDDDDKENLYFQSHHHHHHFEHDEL

Take hepatitis C protease (HCV-P): the “YESS two-color FACS (PE / FITC)” value in series [1] is recorded as “displayed relatively similar PE but low FITC signals by FACS compared to the controls lacking proteases”.

B1: human granzyme K protease (GrK) (protein)
chain: IIGGKEVSPHSRPFMASIQYGGHHVCGGVLIDPQWVLTAAHCQYRFTKGQSPTVVLGAHSLSKNEASKQTLEIKKFIPFSRVTSDPQSNDIMLVKLQTAAKLNKHVKMLHIRSKTSLRSGTKCKVTGWGATDPDSLRPSDTLREVTVTVLSRKLCNSQSYYNGDPFITKDMVCAGDAKGQKDSCKGDSGGPLICKGVFHAIVSGGHECGVATKPGIYTLLTKKYQTWIKSNLVPPHTN
For B1, the “YESS two-color FACS (PE / FITC)” value in series [2] is on record as “displayed relatively similar PE but low FITC signals by FACS compared to the controls lacking proteases”.

B2: human Abelson tyrosine kinase (AblTK) (protein)
chain: SPNYDKWEMERTDITMKHKLGGGQYGEVYEGVWKKYSLTVAVKTLKEDTMEVEEFLKEAAVMKEIKHPNLVQLLGVCTREPPFYIITEFMTYGNLLDYLRECNRQEVNAVVLLYMATQISSAMEYLEKKNFIHRDLAARNCLVGENHLVKVADFGLSRLMTGDTYTAHAGAKFPIKWTAPESLAYNKFSIKSDVWAFGVLLWEIATYGMSPYPGIDLSQVYELLEKDYRMERPEGCPEKVYELMRACWQWNPSDRPSFAEIHQAFETMFQESSISDEVEKELGK
As for B2, the “YESS FACS (Alexa Fluor 647 anti-phosphotyrosine / anti-6xHis-FITC)” value in series [3] is recorded as “displayed relatively similar FITC but high Alexa Fluor@647 signals by FACS”.

B3: TEV-PE10, purified (protein)
chain: HHHHHHSLFKGPRDYNPISSTICHLTNESDGHTTSLYGIGFGPFIITNKHLFRRNNGTLLVQSLHGVFKVKNTTTLQQHLIDGRDMIIIRMPKDFPPFPQKLKFREPQREERICLVTTNFQTKRMSSMVSDTSCTFPSSDGIFWKHWIQTKRGQCGSPLVSTRDGFIVGIHSASNFANTNKYFTSVPKNFMELLTNQEAQQWVSGWRLNADSVLWGGHKVFIPKPEEPFQPVKEATQLMN
Consider B3, for which, in series [4], the KM was 12.8 µM, the “fold higher kcat/KM on TENLYFESGTRRW versus […]” value was 13-fold higher kcat/KM value, the kcat was found to be 0.0255 s⁻¹ and the kcat/KM was determined as 2060 M⁻¹ s⁻¹. In addition, the “reversal of substrate specificity compared to TEV-P” value in series [4] is given as 5000-fold reversal of substrate specificity compared to TEV-P.

B4: wild-type TEV protease (TEV-P), purified (protein)
chain: HHHHHHSLFKGPRDYNPISSTICHLTNESDGHTTSLYGIGFGPFIITNKHLFRRNNGTLLVQSLHGVFKVKNTTTLQQHLIDGRDMIIIRMPKDFPPFPQKLKFREPQREERICLVTTNFQTKSMSSMVSDTSCTFPSSDGIFWKHWIQTKDGQCGSPLVSTRDGFIVGIHSASNFTNTNNYFTSVPKNFMELLTNQEAQQWVSGWRLNADSVLWGGHKVFMPKPEEPFQPVKEATQLMN
For B4, in series [5], the KM is 640 µM, the “fold by which kcat/KM on […] exceeds kcat/KM on TENLYFHSGTRRW” value is given as 150-fold, the kcat came to 0.00493 s⁻¹ and the specificity constant (kcat/KM) is 7.55 M⁻¹ s⁻¹. For the same molecule, in series [4], the KM worked out at 1930 µM, the “fold by which kcat/KM on […] exceeds kcat/KM on TENLYFESGTRRW” value was 375-fold, the turnover number (kcat) came out at 0.00609 s⁻¹ and the catalytic efficiency (kcat/KM) stood at 3.14 M⁻¹ s⁻¹.

B5: TEV-PH21, purified (protein)
chain: HHHHHHSLFKGPRDYNPISSAICHLTNESDGHTTSLYGIGFGPFIITNKHLFRRNNGTLLVQSLHGVFKVKNTTTLQQHLIDGRDMIIIRMPKDFPPFPQKLKFREPQREERICLVTTNFQTKSMSSMVSDTSCTFPSSDGIFWKHWIQAKPGQCGCPLVSTRDGFIVGIHTAANFANTNNYFTSVPKNFMELLTNQEAQQWVSGWRLNADSVLWGGHKVFMPKPEEPFQPVKEATQLMN
As to B5, in series [5], the KM is 250 µM, the fold higher kcat/KM on TENLYFHSGTRRW versus […] worked out at 7 fold, the kcat came out at 0.0375 s⁻¹ and the kcat/KM turned out to be 150 M⁻¹ s⁻¹. Also, the “reversal of substrate specificity compared to TEV-P” value in series [5] is given as 1100-fold reversal of substrate specificity compared to TEV-P.

B6: TEV-P anchored with a C-terminal ER retention sequence, expressed in the yeast ER (protein)
chain: SLFKGPRDYNPISSTICHLTNESDGHTTSLYGIGFGPFIITNKHLFRRNNGTLLVQSLHGVFKVKNTTTLQQHLIDGRDMIIIRMPKDFPPFPQKLKFREPQREERICLVTTNFQTKSMSSMVSDTSCTFPSSDGIFWKHWIQTKDGQCGSPLVSTRDGFIVGIHSASNFTNTNNYFTSVPKNFMELLTNQEAQQWVSGWRLNADSVLWGGHKVFMPKPEEPFQPVKEATQLMNFEHDEL
Consider B6, for which the “YESS two-color FACS (anti-FLAG-PE / anti-6xHis-FITC)” value in series [6] is listed as “high PE but low FITC fluorescence”.
